Measured values taken from patent US20260226110A1.

Target: single antigen M1 peptide segment of monkeypox virus (monkeypox virus isolate MPXV_USA_2022_MA001) (UniProt M1LBP0)
Sequence of UniProt M1LBP0 (M1LBP0 1-181 limits assumed): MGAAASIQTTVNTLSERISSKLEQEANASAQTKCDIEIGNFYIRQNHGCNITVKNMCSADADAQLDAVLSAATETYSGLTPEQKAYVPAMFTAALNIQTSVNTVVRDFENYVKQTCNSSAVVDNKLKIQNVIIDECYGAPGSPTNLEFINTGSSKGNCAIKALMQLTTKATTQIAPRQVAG

Work on neutralizing antibody 7D11 yielded a koff of 0.00476 s⁻¹ and a kon of 1.44e+06 M⁻¹ s⁻¹.
